Five molecules from patent publication US20070169210A1 (EMORY UNIVERSITY, published 2007) can be followed below.

The target of assay [1] is zona pellucida of unfertilized (ovulated) oocytes. The experiment in a line: cell-based or functional assay.
Assay [2] concerns the target SED1, endogenous, of mouse sperm and male reproductive tract (mouse) (UniProt P21956). The experiment in a line: cell-based or functional assay.
Assay [3] has as its target T1, SED1 expressed in COS-7 cells (SED1-COS), on secreted membrane vesicles (mouse, UniProt P21956 23-463).
T1 construct: Cloned into pcDNA3.1 D/V5-His-Topo; Used as SED1-enriched membrane vesicles released by COS-7 cells; also called COS-expressed SED1
T1 sequence: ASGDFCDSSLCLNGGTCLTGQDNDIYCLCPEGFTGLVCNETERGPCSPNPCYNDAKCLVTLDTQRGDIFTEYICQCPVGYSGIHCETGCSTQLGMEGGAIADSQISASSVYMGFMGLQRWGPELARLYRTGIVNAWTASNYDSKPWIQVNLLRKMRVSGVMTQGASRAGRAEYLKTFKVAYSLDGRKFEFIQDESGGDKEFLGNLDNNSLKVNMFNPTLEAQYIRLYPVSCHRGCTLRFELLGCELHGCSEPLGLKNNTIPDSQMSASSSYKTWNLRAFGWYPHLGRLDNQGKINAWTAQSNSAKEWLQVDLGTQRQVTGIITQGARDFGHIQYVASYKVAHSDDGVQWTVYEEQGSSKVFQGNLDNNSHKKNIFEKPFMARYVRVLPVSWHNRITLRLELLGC
The experiment in a line: blot overlay, zona glycoproteins resolved under reducing conditions, detected with anti-SED1. The protocol:
(§1) The purification of zona pellucida glycoproteins was done as published elsewhere (Miller et al., 1992). The proteins were resolved on 10% polyacrylamide gels and transferred onto Immobilon-P membranes (Millipore) as above. The membranes were blocked in TBST containing 2% BSA for 1 hr at 25° C. Subsequently, membranes were incubated with either (His)₆-SED1, biotinylated (His)₆-SED1, SED1 prepared from COS-7 cells, or biotinylated WGA-lectin (positive control) for 1 hr at 25° C. and washed three times for 10 min in TBST, followed by incubation with either rabbit anti-SED1 and goat anti-rabbit-HRP, or Streptavidin-HRP (Zymed). The membranes were washed, developed, and exposed to film as above.
To determine which of the three zona glycoproteins could serve as the putative ligand for SED1, […]. When zona glycoproteins were resolved under reducing conditions, SED1 bound to glycoproteins comigrating as ZP1/ZP2 as well as ZP3 (FIG. 3D). Similar results were achieved using either biotinylated (His)₆-SED1 (D-SED1) detected by Streptavidin-HRP/ECL or recombinant (His)₆-SED1 (rSED1) detected by rabbit-anti-SED1 IgG and HRP-conjugated secondary antibodies (FIG. 3D). […]

For assay [4], the target named is T2, ZP1 zona pellucida glycoprotein (murine, UniProt Q62005 21-546).
T2 construct: Native glycoprotein on a blot, non-reducing conditions
T2 sequence (looked up): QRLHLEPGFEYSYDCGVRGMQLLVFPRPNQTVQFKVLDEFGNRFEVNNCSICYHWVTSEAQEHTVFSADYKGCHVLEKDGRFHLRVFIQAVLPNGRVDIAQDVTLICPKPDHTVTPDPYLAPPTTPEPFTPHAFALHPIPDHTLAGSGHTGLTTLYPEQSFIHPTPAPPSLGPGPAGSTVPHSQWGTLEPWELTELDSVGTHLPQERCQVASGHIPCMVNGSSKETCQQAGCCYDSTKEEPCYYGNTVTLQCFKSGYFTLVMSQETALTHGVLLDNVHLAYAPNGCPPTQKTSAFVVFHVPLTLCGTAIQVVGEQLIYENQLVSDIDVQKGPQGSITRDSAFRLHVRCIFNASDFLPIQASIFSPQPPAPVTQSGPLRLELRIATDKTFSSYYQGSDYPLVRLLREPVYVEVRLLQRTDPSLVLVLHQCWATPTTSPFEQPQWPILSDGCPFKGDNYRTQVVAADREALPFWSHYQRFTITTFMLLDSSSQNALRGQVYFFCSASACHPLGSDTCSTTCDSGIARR
The experiment in a line: blot overlay of zona glycoproteins resolved under nonreducing conditions, biotinylated (His)6-SED1, streptavidin-HRP. On the procedure: as §1

With “(His)6-SED1 truncated fusion protein EEC (both EGF repeats, one discoidin/C domain)”, the binding of GalT I null sperm to the zona, % of control (% of control at 3.8 µg/ml) in assay [1] is 21. “preimmune rabbit serum / preimmune IgG (antibody)” gave a binding of GalT I null sperm to the zona, % of control (% of control binding at 200 µg/ml) in assay [2] of 91.

B1: SED1, endogenous, of mouse sperm and male reproductive tract (protein)
chain: ASGDFCDSSLCLNGGTCLTGQDNDIYCLCPEGFTGLVCNETERGPCSPNPCYNDAKCLVTLDTQRGDIFTEYICQCPVGYSGIHCETGCSTQLGMEGGAIADSQISASSVYMGFMGLQRWGPELARLYRTGIVNAWTASNYDSKPWIQVNLLRKMRVSGVMTQGASRAGRAEYLKTFKVAYSLDGRKFEFIQDESGGDKEFLGNLDNNSLKVNMFNPTLEAQYIRLYPVSCHRGCTLRFELLGCELHGCSEPLGLKNNTIPDSQMSASSSYKTWNLRAFGWYPHLGRLDNQGKINAWTAQSNSAKEWLQVDLGTQRQVTGIITQGARDFGHIQYVASYKVAHSDDGVQWTVYEEQGSSKVFQGNLDNNSHKKNIFEKPFMARYVRVLPVSWHNRITLRLELLGC
In assay [1], B1 displayed a sperm bound per egg, SED1 null sperm of 1.45 sperm/egg and a sperm bound per egg, wild-type sperm of 11.2 sperm/egg.

B2: ZP3 zona pellucida glycoprotein (other, murine, UniProt P10761 23-351, looked up)
chain: QTLWLLPGGTPTPVGSSSPVKVECLEAELVVTVSRDLFGTGKLVQPGDLTLGSEGCQPRVSVDTDVVRFNAQLHECSSRVQMTKDALVYSTFLLHDPRPVSGLSILRTNRVEVPIECRYPRQGNVSSHPIQPTWVPFRATVSSEEKLAFSLRLMEENWNTEKSAPTFHLGEVAHLQAEVQTGSHLPLQLFVDHCVATPSPLPDPNSSPYHFIVDFHGCLVDGLSESFSAFQVPRPRPETLQFTVDVFHFANSSRNTLYITCHLKVAPANQIPDKLNKACSFNKTSQSWLPVEGDADICDCCSHGNCSNSSSSQFQIHGPRQWSKLVSRN
notes: Native glycoprotein on a blot, reducing and non-reducing conditions
With B2, the binding result in assay [3] is recorded as “binds”.

B3: (His)6-SED1 fusion protein (full-length recombinant mouse SED1 expressed in E. coli) (other)
chain: HHHHHHASGDFCDSSLCLNGGTCLTGQDNDIYCLCPEGFTGLVCNETERGPCSPNPCYNDAKCLVTLDTQRGDIFTEYICQCPVGYSGIHCETGCSTQLGMEGGAIADSQISASSVYMGFMGLQRWGPELARLYRTGIVNAWTASNYDSKPWIQVNLLRKMRVSGVMTQGASRAGRAEYLKTFKVAYSLDGRKFEFIQDESGGDKEFLGNLDNNSLKVNMFNPTLEAQYIRLYPVSCHRGCTLRFELLGCELHGCSEPLGLKNNTIPDSQMSASSSYKTWNLRAFGWYPHLGRLDNQGKINAWTAQSNSAKEWLQVDLGTQRQVTGIITQGARDFGHIQYVASYKVAHSDDGVQWTVYEEQGSSKVFQGNLDNNSHKKNIFEKPFMARYVRVLPVSWHNRITLRLELLGC
modifications: biotinylated with Sulfo-NHS-LC-LC-Biotin in the bead assays and in the streptavidin-detected blot overlays
notes: also called rSED1; recombinant SED1
In assay [1], B3 displayed a binding of GalT I null sperm to the zona, % of control (% of control at 6 µg/ml) of 27. Also, the binding result in assay [4] was “no binding”.
